From article PMC7431413, “Selective inhibition of STAT3 signaling using monobodies targeting the coiled-coil and N-terminal domains” (Nature Communications, 2020)
Where no end group is shown, it is not given here. [ ]: non-standard residue; d: D form. pY = N[C@@H](Cc1ccc(OP(=O)(O)O)cc1)C(=O)O

Molecular target: T1, recombinant core fragment (CF) of STAT3 (human, UniProt P40763 127-722)
T1 construct: STAT3, human, core fragment (CC, DBD and SH2 domains), a.a; For the crystal the methods say 'TEV cleaved-MS3-6 and STAT3-CF'; it is not clear whether the tags of STAT3-CF were cut too; also called STAT3-CF; source: E. coli BL21 (DE3), pHBT vector, purified (Ni-NTA, SEC)
T1 sequence (P40763 127-722): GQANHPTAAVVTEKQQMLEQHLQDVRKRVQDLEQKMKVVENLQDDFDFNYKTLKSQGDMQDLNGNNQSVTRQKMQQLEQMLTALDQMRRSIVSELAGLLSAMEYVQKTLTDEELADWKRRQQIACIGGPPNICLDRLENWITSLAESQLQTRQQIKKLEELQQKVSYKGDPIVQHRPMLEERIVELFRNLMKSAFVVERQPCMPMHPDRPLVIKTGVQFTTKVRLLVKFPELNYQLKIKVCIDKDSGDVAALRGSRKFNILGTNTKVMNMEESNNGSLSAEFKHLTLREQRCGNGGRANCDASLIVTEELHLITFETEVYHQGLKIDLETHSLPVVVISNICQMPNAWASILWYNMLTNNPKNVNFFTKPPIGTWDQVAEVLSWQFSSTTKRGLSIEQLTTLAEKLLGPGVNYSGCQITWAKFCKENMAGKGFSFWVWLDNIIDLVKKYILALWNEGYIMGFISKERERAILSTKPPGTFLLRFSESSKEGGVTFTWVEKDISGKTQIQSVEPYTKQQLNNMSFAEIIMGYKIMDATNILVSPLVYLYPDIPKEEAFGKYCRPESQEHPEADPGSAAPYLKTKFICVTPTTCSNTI
Test: fluorescence polarisation; fluorescent gp130 pY-peptide and recombinant STAT3-CF (Supplementary Fig. 3a); TBS (50 mM Tris pH 7.5, 150 mM NaCl)
Settings: both partners purified

Kd: 930 nM
B1: fluorescent pY-peptide encompassing the pY905 docking site of gp130 (peptide)
peptide: GMPKS[pY]LPQTVR-NH2
modifications: not fully specified (N-terminus)
notes: gp130, cytosolic tail around the Y905 docking site; also called gp130 pY-peptide; phospho-gp130 peptide; source: synthetic peptide
